Tests used:
Test in all cases: Quantitative phosphorylation assay of T33-Sic1ΔC constructs and recombinant substrates
Type in all cases: biochemical
Clb2-Cdk1 = target: T1, Clb2-Cdk1 (Saccharomyces cerevisiae, UniProt P00546+P24869); settings: Table S2; purified protein substrate; relative values, not divided by [S]
T1 construct: We purified the four cyclin-Cdk1 complexes from yeast; made in house; host or cells: S. cerevisiae strain DOM0077 (gal-CLB2-TAP, sic1 deleted); Cks1 from bacteria
Method: (§1) For the quantitative phosphorylation assays of T33-Sic1ΔC constructs and recombinant substrates, substrate concentrations were kept in the range of 0.5–2 μM (in the linear [S] versus v0 range, several-fold below the estimated KM value), and initial velocity conditions were defined as an initial substrate turnover of up to 10% of the total turnover. For the steady-state peptide kinetics of the Histone peptide PKTPKKAKKL, a similar assay composition was used as for protein substrates, and phosphocellulose paper was used for the quantification of the phosphorylated substrate. […]
(§2) similar substrate specificity as the Cln2-Cdk1 version purified using a TAP-tag. N-terminally 6His-tagged recombinant T33-Sic1ΔC constructs and substrates were cloned into the pET28a vector and purified by standard cobalt affinity chromatography and elution with 200 mM imidazole. 6His-Fin1 was purified as described previously (Woodbury and Morgan, 2007). Substrates cloned into the pGEX-4T-1 were purified on glutathione agarose columns using 5 mM reduced glutathione for elution. Cks1 was purified as described previously (Reynard et al., 2000). The optimal working concentration for purified Cks1 was taken as 500 nM based on optimization performed for cyclin-Cdk1 preparations and T33-Sic1ΔC as a substrate.
(§3) For the quantitative phosphorylation assays of T33-Sic1ΔC constructs and recombinant substrates, substrate concentrations were kept in the range of 0.5-2 μM (in the linear [S] vs v0 range, several-fold below the estimated KM value), and the initial velocity conditions were defined as an initial substrate turnover ranging up to 10% of the total turnover. The latter was estimated by a long-term incubation with excess amounts of cyclin-Cdk1 and 32P-γ-ATP in the standard reaction mixture given below. About 1-10 nM of purified kinase complex was used, reaction aliquots were taken at two or more time points, and the reaction was stopped by SDS-PAGE sample buffer. The relative kcat/KM values for the substrates were calculated as the ratio of v0/[S], which was determined from at least two independent experiments. The basal composition of the assay mixture contained 50 mM Hepes, pH 7.4, 100 mM NaCl, 0.1% NP-40, 20 mM imidazole, 0.1 mg/ml 2HA peptide, 2% glycerol, 2 mM EGTA, 0.2 mg/ml BSA, […], and 500 μM ATP (with added 32P-γ-ATP (Perkin Elmer)).
(§4) About 1-10 nM of purified kinase complex was used, reaction aliquots were taken at two or more time points, and the reaction was stopped by SDS-PAGE sample buffer. For the steady-state peptide kinetics of the Histone peptide PKTPKKAKKL, a similar assay composition was used as for protein substrates and the standard phosphocellulose method was applied for the quantification of the phosphorylated substrate (Loog and Morgan, 2005). Synthetic peptides as competitor agents were used in 4 mM final concentrations. […]

Clb3-Cdk1 = target: T2, Clb3-Cdk1 (Saccharomyces cerevisiae, UniProt P00546+P24870); settings: Table S2; purified protein substrate; relative values, not divided by [S]
T2 construct: We purified the four cyclin-Cdk1 complexes from yeast; made in house; host or cells: S. cerevisiae strain DOM0957 (gal-CLB3-TAP, sic1 deleted); Cks1 from bacteria
Method: as §1, §2, §3, §4

Clb5-Cdk1 = target: T3, Clb5-Cdk1 (Saccharomyces cerevisiae, UniProt P00546+P30283); settings: for kcat/KM, Clb5: Table S2, purified protein substrate, relative values, not divided by [S]; for effect of competitor peptide on Clb5-dependent phosphorylation of Sic1ΔC: synthetic competitor peptide 4 mM, result in words
T3 construct: We purified the four cyclin-Cdk1 complexes from yeast; made in house; host or cells: S. cerevisiae strain DOM0076 (gal-CLB5-TAP, sic1 deleted); Cks1 from bacteria
Method: as §1, §2, §3, §4

Cln2-Cdk1 = target: T4, Cln2-Cdk1 (Saccharomyces cerevisiae, UniProt P00546+P20438); settings: for kcat/KM, Cln2: Table S2, purified protein substrate, relative values, not divided by [S]
T4 construct: We purified the four cyclin-Cdk1 complexes from yeast; made in house; host or cells: S. cerevisiae strain DMY305 (galactose-induced); Cks1 from bacteria
Method: as §1, §2, §3, §4

[1] = synthetic competitor peptide 4 mM

T3 sequence (P00546 2-298 limits assumed): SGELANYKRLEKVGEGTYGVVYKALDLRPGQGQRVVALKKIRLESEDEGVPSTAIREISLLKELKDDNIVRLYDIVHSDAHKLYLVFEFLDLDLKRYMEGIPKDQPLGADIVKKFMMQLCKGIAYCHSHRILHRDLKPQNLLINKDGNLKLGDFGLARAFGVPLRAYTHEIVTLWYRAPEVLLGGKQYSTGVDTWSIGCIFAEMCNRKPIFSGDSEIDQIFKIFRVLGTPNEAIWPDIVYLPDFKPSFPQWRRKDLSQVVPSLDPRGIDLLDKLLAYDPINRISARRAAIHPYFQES
T3 sequence (P30283 whole entry partner): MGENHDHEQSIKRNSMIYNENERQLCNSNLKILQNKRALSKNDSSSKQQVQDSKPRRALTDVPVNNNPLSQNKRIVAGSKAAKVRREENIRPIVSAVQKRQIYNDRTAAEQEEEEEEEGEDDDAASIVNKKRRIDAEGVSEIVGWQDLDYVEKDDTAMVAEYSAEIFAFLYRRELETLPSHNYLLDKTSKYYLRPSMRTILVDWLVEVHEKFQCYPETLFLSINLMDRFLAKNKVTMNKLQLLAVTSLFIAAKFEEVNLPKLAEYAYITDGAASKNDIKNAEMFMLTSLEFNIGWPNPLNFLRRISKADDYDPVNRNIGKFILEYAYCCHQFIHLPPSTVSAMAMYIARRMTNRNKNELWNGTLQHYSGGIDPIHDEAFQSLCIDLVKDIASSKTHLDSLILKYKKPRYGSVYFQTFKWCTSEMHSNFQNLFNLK
T3 sequence (P20486 whole entry partner): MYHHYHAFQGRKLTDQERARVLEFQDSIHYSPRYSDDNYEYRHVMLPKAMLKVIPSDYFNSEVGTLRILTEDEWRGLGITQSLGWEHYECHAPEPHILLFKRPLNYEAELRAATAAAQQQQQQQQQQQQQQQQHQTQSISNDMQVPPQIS
T1 sequence (P00546 2-298 limits assumed): as the sequence (P00546 2-298 limits assumed) above
T1 sequence (P24869 2-491 partner limits assumed): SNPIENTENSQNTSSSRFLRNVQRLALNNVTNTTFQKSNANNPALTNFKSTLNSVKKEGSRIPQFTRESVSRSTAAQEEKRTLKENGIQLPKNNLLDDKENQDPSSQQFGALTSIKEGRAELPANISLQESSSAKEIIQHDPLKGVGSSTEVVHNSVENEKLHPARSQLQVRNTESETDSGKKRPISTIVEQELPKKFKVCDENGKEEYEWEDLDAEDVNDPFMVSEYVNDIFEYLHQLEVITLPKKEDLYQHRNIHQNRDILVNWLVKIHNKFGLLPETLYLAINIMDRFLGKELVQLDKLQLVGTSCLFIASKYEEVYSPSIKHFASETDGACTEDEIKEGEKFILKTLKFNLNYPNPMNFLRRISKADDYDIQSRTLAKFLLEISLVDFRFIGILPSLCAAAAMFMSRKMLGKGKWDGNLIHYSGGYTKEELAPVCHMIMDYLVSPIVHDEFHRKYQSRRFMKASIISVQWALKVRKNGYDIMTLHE
T1 sequence (P20486 whole entry partner): as the sequence (P20486 whole entry partner) above
T4 sequence (P00546 2-298 limits assumed): as the sequence (P00546 2-298 limits assumed) above
T4 sequence (P20438 whole entry partner): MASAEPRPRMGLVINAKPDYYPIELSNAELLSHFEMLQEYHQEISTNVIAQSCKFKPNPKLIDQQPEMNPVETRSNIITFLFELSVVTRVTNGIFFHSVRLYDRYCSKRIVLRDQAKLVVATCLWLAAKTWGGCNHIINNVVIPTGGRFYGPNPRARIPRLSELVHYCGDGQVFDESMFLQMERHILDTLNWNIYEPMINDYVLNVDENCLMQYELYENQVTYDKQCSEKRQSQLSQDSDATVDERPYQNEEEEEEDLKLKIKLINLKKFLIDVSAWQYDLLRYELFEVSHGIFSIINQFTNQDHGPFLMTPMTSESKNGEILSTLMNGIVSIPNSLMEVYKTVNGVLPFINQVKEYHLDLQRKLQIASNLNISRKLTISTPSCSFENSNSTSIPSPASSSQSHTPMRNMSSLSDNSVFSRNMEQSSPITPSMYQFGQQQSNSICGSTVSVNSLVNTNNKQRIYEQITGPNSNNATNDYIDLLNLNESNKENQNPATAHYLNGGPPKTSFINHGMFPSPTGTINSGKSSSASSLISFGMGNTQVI
T4 sequence (P20486 whole entry partner): as the sequence (P20486 whole entry partner) above
T2 sequence (P00546 2-298 limits assumed): as the sequence (P00546 2-298 limits assumed) above
T2 sequence (P24870 whole entry partner): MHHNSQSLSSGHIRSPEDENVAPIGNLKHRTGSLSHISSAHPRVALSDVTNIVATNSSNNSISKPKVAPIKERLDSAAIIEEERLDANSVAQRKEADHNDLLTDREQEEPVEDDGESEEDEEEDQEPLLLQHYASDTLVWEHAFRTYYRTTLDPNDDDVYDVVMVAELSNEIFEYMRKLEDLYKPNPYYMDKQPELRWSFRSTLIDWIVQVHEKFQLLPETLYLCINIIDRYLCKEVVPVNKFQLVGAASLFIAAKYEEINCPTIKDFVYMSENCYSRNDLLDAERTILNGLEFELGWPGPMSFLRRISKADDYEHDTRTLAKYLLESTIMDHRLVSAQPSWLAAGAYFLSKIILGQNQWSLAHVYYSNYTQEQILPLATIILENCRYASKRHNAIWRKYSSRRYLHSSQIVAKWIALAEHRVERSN
T2 sequence (P20486 whole entry partner): as the sequence (P20486 whole entry partner) above

Molecule | kcat/KM, Clb2 (Clb2-Cdk1) | kcat/KM, Clb3 (Clb3-Cdk1) | kcat/KM, Clb5 (Clb5-Cdk1) | kcat/KM, Cln2 (Cln2-Cdk1) | effect of competitor peptide on Clb5-dependent phosphorylation of Sic1ΔC (Clb5-Cdk1) | effect of competitor peptide on Cln2-dependent phosphorylation of Sic1ΔC (Cln2-Cdk1; [1]) | effect of competitor peptide on Cln2 docking / Cln2-dependent phosphorylation of Sic1ΔC (Cln2-Cdk1; synthetic competitor peptide 4 mM, result in words)
RTT109: purified yeast protein tested as Cdk1 substrate | 0.080 relative units | 0.027 relative units | 0.010 relative units | 0.067 relative units |  |  | 
RVNRILFPT [synthetic peptide based on the RXL2 motif of Sic1] |  |  |  |  | had an effect on Clb5-dependent phosphorylation | 3- to 4 fold | 
RVNAIAFPT [AXL peptide, similar peptide in which the arginine of the RXL motif was replaced with alanine] |  |  |  |  | only the RXL peptide reduces the specificity of Clb5 | 3- to 4 fold | 
VLLPPSRPTS [LP peptide] |  |  |  |  |  |  | competitive inhibitor of the docking
ACE2: purified yeast protein tested as Cdk1 substrate (protein, UniProt P21192 1-770, looked up) Metallothionein expression …: MDNVVDPWYINPSGFAKDTQDEEYVQHHDNVNPTIPPPDNYILNNENDDGLDNLLGMDYYNIDDLLTQELRDLDIPLVPSPKTGDGSSDKKNIDRTWNLGDENNKVSHYSKKSMSSHKRGLSGTAIFGFLGHNKTLSISSLQQSILNMSKDPQPMELINELGNHNTVKNNNDDFDHIRENDGENSYLSQVLLKQQEELRIALEKQKEVNEKLEKQLRDNQIQQEKLRKVLEEQEEVAQKLVSGATNSNSKPGSPVILKTPAMQNGRMKDNAIIVTTNSANGGYQFPPPTLISPRMSNTSINGSPSRKYHRQRYPNKSPESNGLNLFSSNSGYLRDSELLSFSPQNYNLNLDGLTYNDHNNTSDKNNNDKKNSTGDNIFRLFEKTSPGGLSISPRINGNSLRSPFLVGTDKSRDDRYAAGTFTPRTQLSPIHKKRESVVSTVSTISQLQDDTEPIHMRNTQNPTLRNANALASSSVLPPIPGSSNNTPIKNSLPQKHVFQHTPVKAPPKNGSNLAPLLNAPDLTDHQLEIKTPIRNNSHCEVESYPQVPPVTHDIHKSPTLHSTSPLPDEIIPRTTPMKITKKPTTLPPGTIDQYVKELPDKLFECLYPNCNKVFKRRYNIRSHIQTHLQDRPYSCDFPGCTKAFVRNHDLIRHKISHNAKKYICPCGKRFNREDALMVHRSRMICTGGKKLEHSINKKLTSPKKSLLDSPHDTSPVKETIARDKDGSVLMKMEEQLRDDMRKHGLLDPPPSTAAHEQNSNRTLSNETDAL | 0.069 relative units | 0.029 relative units | 0.004 relative units | 0.025 relative units |  |  | 
BOP3: purified yeast protein tested as Cdk1 substrate (protein, UniProt P53958 1-396, looked up) Protein BOP3: MSTFNSYSQPKESNDNSHNNVNKSKSLLDIIFGTNVSEWAFSENALMKAMDLKIEQEKTKQQYYKLENLNRSIELFKLASSSGLPINQIHKLFNTDHGVPASSPMKAGGNQPHNNTEGTQSSENLPRLNGSMKSLKPLNMNTVSPTPMSRQPSPYKFPASSSTGGISHSTVTNVQRRANSPARIGASAVAALNDNISIKEEDVARRIPSGTKSQESPLNKKPTSLHSRNLSLPIGKFTNPNIPSTMTSILSFNRDQQQPLSQPLPPPPQQQQDLHTHNLHTIPRKPGMVQKKHRRARSTSSFGVIDLSIIDEAKEKQVQRSPSPIHSNVSVALTSHDKPIESNMKEQPNMLQSVREGRQVHDDLDDRTCSESSSRNESPVRTITKDNSVGKILNST | 0.109 relative units | 0.101 relative units | 0.027 relative units | 0.521 relative units |  |  | 
MSA1: purified yeast protein tested as Cdk1 substrate (protein, UniProt Q08471 1-629, looked up) G1-specific transcription …: MDKSMIKKRGRPPITKDYPNPLQSPMAHSSMQVQKQGPHSFAKPLMKVGQSSPSPNKRRLSIDHHHNLAATTRKGRYRGVLLSTPTKKSSTNGSTPISTPSSNDSYNNTVFSETRKTFLQSSPPIMTSSPAFQKKNDYMFPSQEQFKLSLTITESGKAVIAGSLPFSPSSKSSHLMNNNNKKIMQNEKIHKGSKKNAPKFEKRRILSLLKQMKNEKYCDTDTLPEAPPAKPSRSDIIDTELPTIIETSASPIGSARNNNILLSQPPQSPPSSAQLKPPSTPKSSLQFRMGFTPNVALNSVSLSDTISKSTNAVGASNNNNQNGNSISNIADANTLLTLTNSPGVFLSPRNKMLPKSTTASNEQQQEFVFKFSSGDPLLLTDDADGNWPEMLFNVSNTPRRQKCFNTPPSWINFGSPGLFSPPRSSNVMVNGTTVATASDSGNVHRQLQAQLEAQVQVQSQSNSPTQRQQQQRQFQIPPPHINMNSSPPQINIASPPHQSMSRVSSIYFNKEKTTTGVANMLGNTKSENLQPPANLFTAAHGPSTPRNQEFQLPTLIECTPLIQQTMNGSLGTKYIPGTSISNSATPNLHGFPVGTGKAPSSFDDSLKQNPYSNKQDDARTALKRLIDDQ | 0.034 relative units | 0.043 relative units | 0.024 relative units | 0.157 relative units |  |  | 
YOX1: purified yeast protein tested as Cdk1 substrate (protein, UniProt P34161 1-385, looked up) Homeobox protein YOX1: MSQETKMLPSLSSLLSGTEISSSPVSPSFTNPRTSFHLDDRGTIKLPPLNTSINRPRSVESALRHTVTSLHENSSAYGDDMLKHTQSDSALSSQLNSSQETVDESHENLLLTPLNSKKRDYSVSSKKNDILTPLSAAKSIIIPSASKEKRRAFAFITHSQETFPKKEPKIDNAPLARRKRRRTSSQELSILQAEFEKCPAPSKEKRIELAESCHMTEKAVQIWFQNKRQAVKRQRIATSKSTTIIQTVSPPSPPLDVHATPLASRVKADILRDGSSCSRSSSSSPLENTPPRPHHSLNRRSSTPSIKRSQALTFHLNPQKKTLTPVKTSPNSRVNKLINSIDHSPSKAKRPVSNPSGSPKRKRKFGFKIVDQQPLKDLDPNAFRG | 4.536 relative units | 2.094 relative units | 0.244 relative units | 0.584 relative units |  |  | 
STB1: purified yeast protein, Cln2-specific Cdk1 target (protein, UniProt P42845 2-420, looked up) Protein STB1: SQPQMSPEKEQELASKILHRAELAQMTRQLKLGLSNVPSTKRKQDSTTKKRSGEDAEDVDEDHKTLLEAISPAKKPLHDDTNKMTVISPVKFVEKPNTPPSSRQRKAEDRSQQIKPRKEDTPSTPRASATPIILPHASSHYQRPHDKNFMTPKRNNNNSSNHSNNNNNIKKKAAGSKDAPQDSDNTAGADLLMYLATSPYNKSSHHGTPMAVRMPTTPRSYHYASQLSLNGNTASTSNDAVRFSHIKPSASSPQSTFKSNLLPNFPDESLMDSPSLYLSNNNGSVQATLSPQQRRKPTTNTLHPPSNVPTTPSRELNGTNFNLLRTPNFNMGDYLHNLFSPSPRVPAQQGASNTSASIPSVPAMVPGSSSNTSAIATAAISSHTTNNFLDMNANGIPLIVGPGTDRIGEGESIDDKLTD | 0.878 relative units | 0.622 relative units | 0.191 relative units | 2.011 relative units |  |  | 
TOS8: purified yeast protein tested as Cdk1 substrate (protein, UniProt P53147 1-276, looked up) Homeobox protein TOS8: MGTSIVNLNQKIELPPIQVLFESLNRENETKPHFEERRLYQPNPSFVPRTNIAVGSPVNPVPVSSPVFFIGPSPQRSIQNHNAIMTQNIRQYPVIYNNNREVISTGERNYIITVGGPPVTSSQPEYEHISTPNFYQEQRLAQPHPVNESMMIGGYTNPQPISISRGKMLSGNISTNSVRGSNNGYSAKEKKHKAHGKRSNLPKATVSILNKWLHEHVNNPYPTVQEKRELLAKTGLTKLQISNWFINARRRKIFSGQNDANNFRRKFSSSTNLAKF | 0.254 relative units | 0.276 relative units | 0.069 relative units | 2.830 relative units |  |  | 

Source: PMC3115021, “Dynamics of Cdk1 Substrate Specificity during the Cell Cycle” (Molecular Cell, 2011)
